We go through 10 molecules from patent US20090191645A1, “COMPOUNDS AND METHODS FOR MODULATING INTEGRIN ACTIVITY” (Washington University in St. Louis, priority 2008, published 2009).

One test addresses T1, αIIbβ3 integrin (Homo sapiens, UniProt P05106+P08514).
T1 construct: Platelets and megakaryocytes are the only cells to express αIIbβ3 integrin; endogenous in cells; host or cells: washed human platelets from a healthy donor
Put plainly: LIBS antibody binding to human platelets (flow cytometry). Type of test: cell-based. Particulars: for LIBS binding to platelets (3 LIBS mAbs): platelets with PGE1 / kept on ice; for D3 LIBS antibody binding to platelets: 100 μM clasp peptide in the presence of RGD. Here is the method: Preparation of Fresh Platelets—Collection of human blood was performed under an approved protocol of the Washington University School of Medicine Human Studies Committee. 30 mL of blood was drawn from a healthy donor into 3% sodium citrate, and centrifuged at 200×g for 10 min. at room temp. to yield platelet-rich plasma (PRP). The PRP was treated with 1 μg/ml prostaglandin E1 (PGE-1) and centrifuged at 500×g for 5 min. The platelet pellet was resuspended in Tyrode's solution (137 mM NaCl, 2.7 mM KCl, 2 mM CaCl2, 1 mM MgCl2, 3.3 mM NaH2PO4, 5.5 mM glucose, 20 mM HEPES, pH 7.4 with 1 mg/ml BSA and 1 μg/ml PGE-1. The platelet suspension was stored on ice for 1 to 48 hr or treated as described below.
(§1) Flow Cytometry—Binding of anti-β3 mAb AP3 and anti-LIBS mAbs LIBS1, LIBS6 and D3 was quantified using a Coulter EPICS flow cytometer. 10^6 cells were washed and resuspended in 100 μl of FACS buffer (1% BSA, 2 mM MgCl2, in PBS) and incubated on ice for 30 minutes. Cells were washed and resuspended in buffer (PBS+2 mM MgCl2 or 1 mM each CaCl2 and MgCl2) along with combinations of 0-1 mM GRGDSP (SEQ ID NO: 19) with 500 μM MnCl2, 100 μM P2483, 100 μM P2484, and 100 μM P2485 or control peptide. Cells were then incubated on ice for 30 minutes. Cells were washed and incubated in 100 μl of buffer (PBS+2 mM MgCl2) containing donkey anti-mouse IgG-FITC at a 1:100 dilution for an additional 30 min. After washing, the cells were diluted to 0.5 ml and analyzed by flow cytometry. Data was analyzed using WinMDI software.
Platelets and megakaryocytes are the only cells to express αIIbβ3 integrin, and thus platelets offer a unique system in which to test the effects of the clasp peptides on β3 integrin activation. They also provide the opportunity to compare the activation response to the clasp peptides of αIIbβ3 vs αvβ3. Several G protein coupled receptors (e.g. those for ADP, thromboxane and thrombin) on platelets can rapidly activate αIIbβ3 via inside-out signaling (2). To eliminate this route of activation platelets were incubated with PGE1, which elevates cyclic AMP levels via Gs, and in some experiments also used apyrase to block activation by leaked ADP (39). In addition, platelets were kept on ice for as long as 24 to 48 hours to ensure metabolic inactivity. While short-term exposure to cold can activate platelets, long term exposure makes platelets refractory to activation (40).
(Flow cytometry measures light scatter and fluorescence of single cells or particles in a stream.)

Another test concerns the target T2, αvβ3 integrin (Homo sapiens, UniProt P05106+P06756).
T2 construct: Full length cDNA clones of human αv and β3 integrin subunits were provided by Dr. Scott Blystone; expressed in transfected cells; host or cells: human K562 erythroleukemia cells (ATCC CCL-243), stably expressing αvβ3
Put plainly: LIBS antibody binding to αvβ3 on K562 cells (flow cytometry). Type of test: cell-based. Particulars: K562 cells expressing αvβ3; for LIBS1, LIBS6 or D3 antibody binding (fluorescence): 1 mM GRGDSP vs LIBS antibody with no RGD peptide; for LIBS1 antibody binding: 100 μM peptide, in the presence of 1 mM RGD peptide, absence of Mn++. On the procedure:
as §1
To more directly monitor changes in integrin conformation, a series of antibodies (mAbs) were used that react with ligand-bound or activated states of β3 integrins. These LIBS mAbs used here recognize epitopes at three different sites within the stalk region of the β3 subunit that are masked in the “off” state and only become accessible when the integrin is “opened up” in the ligand-binding, activated conformation (37). When K562 cells transfected to express αvβ3 integrin were incubated with the LIBS1 or LIBS6 mAbs alone (dotted histograms in FIG. 2), little antibody binding above isotype control mAb or secondary mAb alone was detected. D3 mAb appeared to induce some activation of the integrin since its binding to αvβ3 (FIG. 2, dotted line) was several fold above that of controls. GRGDSP (SEQ ID NO: 19) peptide augments LIBS binding by stabilizing active conformations of the β3 integrin. […] The effect of the clasp peptides on the binding of each LIBS mAb was determined in the presence of 1 mM RGD peptide, but in the absence of Mn^++.

The test system of another test is C32 melanoma cells. In words: C32 cell adhesion and spreading on vitronectin. It counts as cell-based, human. Particulars: Vn-coated wells. Here is the method: Cell Spreading Assay—Spreading of C32 cells on Vn was performed as described (31) in 24-well tissue culture plates coated with 0.5 μg/ml Vn and blocked with 1% BSA/PBS for 2 hrs at room temperature. C32 cells were plated in HBSS with 2 mM CaCl2 and 2 mM MgCl2 in the presence of 2 mM MnSO4, and indicated amounts of GRGDSP (SEQ ID NO: 19), P2483, P2484, or 4N1K. Cells were allowed to spread for 30 minutes at 37° C., after which the cells were fixed, stained, and photographed.
As an initial approach to testing the function of the putative clasp region of β3 integrins, synthetic peptides were used to mimic the α and β sides of the clasp. It was reasoned that αIIbβ3 is likely to be held in the off state more securely than αvβ3, and thus the αIIb clasp sequence was chosen for these experiments (Table 1). To evaluate the effects of the putative clasp peptides on αvβ3 activation in live cells, adhesion and spreading assays using C32 melanoma cells were performed. […] Not until αvβ3 is activated, e.g. via Mn^++ or CD47 stimulation, does αvβ3-dependent spreading occur (35). The assay was performed in Ca^++/Mg^++ which supports integrin activity, and we used Mn^++ activation of αvβ3 as a positive control (6). The putative clasp peptides were incubated with cells added to the Vn-coated wells and after 30 min at 37° cell attachment and spreading were assessed (FIG. 1).

In test [1] the target is wild-type human αvβ3 integrin on cells (human, UniProt P06756 31-1048; P05106 27-788). In words: cell-based or functional assay.
Setting [2] is: 100 μM clasp peptide in the presence of 100 μM RGD, metabolically inactive human platelets.
Where [3] appears, read: 100 μM clasp peptide, 30 min at 37°.

“Also recorded” adds a separate entry of the source.

T2 sequence (P06756 31-889 limits assumed): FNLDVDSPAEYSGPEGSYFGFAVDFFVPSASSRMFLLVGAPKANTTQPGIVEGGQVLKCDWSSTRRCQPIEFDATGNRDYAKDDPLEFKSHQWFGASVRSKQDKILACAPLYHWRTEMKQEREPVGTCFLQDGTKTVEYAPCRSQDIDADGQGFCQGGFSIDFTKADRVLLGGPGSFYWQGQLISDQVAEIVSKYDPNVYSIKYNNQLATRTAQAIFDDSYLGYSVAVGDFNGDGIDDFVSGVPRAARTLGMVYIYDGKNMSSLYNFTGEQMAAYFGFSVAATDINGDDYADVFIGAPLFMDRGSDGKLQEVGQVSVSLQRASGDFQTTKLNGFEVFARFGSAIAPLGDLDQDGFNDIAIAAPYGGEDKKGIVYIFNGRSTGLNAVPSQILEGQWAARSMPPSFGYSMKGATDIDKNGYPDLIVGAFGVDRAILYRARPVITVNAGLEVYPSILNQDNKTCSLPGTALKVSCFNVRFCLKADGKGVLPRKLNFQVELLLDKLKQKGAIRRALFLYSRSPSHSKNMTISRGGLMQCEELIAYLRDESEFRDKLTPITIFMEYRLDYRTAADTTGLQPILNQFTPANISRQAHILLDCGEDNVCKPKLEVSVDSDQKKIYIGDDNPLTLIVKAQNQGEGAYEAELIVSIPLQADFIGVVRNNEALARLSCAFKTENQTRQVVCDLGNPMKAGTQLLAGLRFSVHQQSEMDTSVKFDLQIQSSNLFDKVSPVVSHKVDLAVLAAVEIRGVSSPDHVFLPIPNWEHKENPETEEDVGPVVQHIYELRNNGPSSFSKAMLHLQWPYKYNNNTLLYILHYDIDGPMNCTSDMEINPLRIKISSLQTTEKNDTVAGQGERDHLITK
T2 sequence (P06756 891-1048 limits assumed): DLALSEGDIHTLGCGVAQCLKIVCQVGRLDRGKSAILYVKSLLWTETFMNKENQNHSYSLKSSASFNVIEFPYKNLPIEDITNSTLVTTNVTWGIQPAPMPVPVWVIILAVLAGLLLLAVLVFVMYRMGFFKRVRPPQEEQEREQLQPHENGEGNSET
T2 sequence (P05106 27-788): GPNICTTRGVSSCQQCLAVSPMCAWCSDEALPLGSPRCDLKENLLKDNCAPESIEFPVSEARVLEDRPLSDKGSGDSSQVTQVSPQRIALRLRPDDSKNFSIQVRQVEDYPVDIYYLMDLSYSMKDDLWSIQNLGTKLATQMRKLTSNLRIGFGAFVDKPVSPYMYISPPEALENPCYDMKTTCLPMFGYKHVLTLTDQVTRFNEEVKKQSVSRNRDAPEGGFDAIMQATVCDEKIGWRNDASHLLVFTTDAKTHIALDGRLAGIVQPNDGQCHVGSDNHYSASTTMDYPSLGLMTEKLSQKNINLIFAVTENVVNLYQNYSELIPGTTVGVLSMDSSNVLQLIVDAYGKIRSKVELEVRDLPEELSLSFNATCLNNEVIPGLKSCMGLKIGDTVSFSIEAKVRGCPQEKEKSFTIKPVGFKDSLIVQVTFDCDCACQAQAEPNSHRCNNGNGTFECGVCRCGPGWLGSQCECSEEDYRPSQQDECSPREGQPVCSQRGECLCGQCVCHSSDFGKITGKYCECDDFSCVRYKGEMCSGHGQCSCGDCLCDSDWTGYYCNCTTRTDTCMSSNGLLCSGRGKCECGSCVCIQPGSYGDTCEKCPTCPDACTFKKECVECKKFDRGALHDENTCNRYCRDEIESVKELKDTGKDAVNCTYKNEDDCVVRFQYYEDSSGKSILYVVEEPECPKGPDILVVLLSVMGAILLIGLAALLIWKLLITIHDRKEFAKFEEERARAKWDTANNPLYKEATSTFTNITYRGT
wild-type human αvβ3 integrin on cells, sequence (P06756 31-1048, chain 1 of 2): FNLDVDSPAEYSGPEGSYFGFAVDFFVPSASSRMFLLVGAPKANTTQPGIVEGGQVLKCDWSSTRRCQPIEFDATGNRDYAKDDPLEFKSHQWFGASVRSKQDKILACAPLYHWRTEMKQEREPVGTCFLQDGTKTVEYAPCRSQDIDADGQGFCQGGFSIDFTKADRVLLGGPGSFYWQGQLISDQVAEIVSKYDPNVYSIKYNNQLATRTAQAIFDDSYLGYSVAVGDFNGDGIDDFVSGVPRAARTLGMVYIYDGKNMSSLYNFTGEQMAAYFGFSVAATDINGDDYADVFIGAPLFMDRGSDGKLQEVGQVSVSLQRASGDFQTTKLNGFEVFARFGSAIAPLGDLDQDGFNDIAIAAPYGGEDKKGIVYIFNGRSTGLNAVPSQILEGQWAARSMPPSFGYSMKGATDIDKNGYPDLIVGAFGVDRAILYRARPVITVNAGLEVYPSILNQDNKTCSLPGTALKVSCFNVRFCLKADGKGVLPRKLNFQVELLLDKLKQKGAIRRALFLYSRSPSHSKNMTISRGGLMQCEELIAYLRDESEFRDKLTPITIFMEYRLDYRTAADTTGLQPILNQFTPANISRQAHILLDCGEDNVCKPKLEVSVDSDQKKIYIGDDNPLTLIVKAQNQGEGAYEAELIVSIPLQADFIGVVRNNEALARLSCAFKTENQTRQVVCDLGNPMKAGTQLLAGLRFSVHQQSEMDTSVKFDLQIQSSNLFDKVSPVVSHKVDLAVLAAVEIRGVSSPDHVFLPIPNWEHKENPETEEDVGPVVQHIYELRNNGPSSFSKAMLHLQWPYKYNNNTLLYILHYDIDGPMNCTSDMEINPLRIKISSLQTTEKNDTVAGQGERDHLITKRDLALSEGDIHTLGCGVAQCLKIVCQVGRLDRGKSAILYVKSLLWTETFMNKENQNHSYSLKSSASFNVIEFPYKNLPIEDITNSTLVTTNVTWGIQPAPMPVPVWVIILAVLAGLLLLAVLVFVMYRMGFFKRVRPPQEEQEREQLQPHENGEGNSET
wild-type human αvβ3 integrin on cells, sequence (P05106 27-788, chain 2 of 2): as the sequence (P05106 27-788) above

For `Nc1ncnc2c1ncn2[C@@H]1O[C@H](COP(=O)(O)OP(=O)(O)O)[C@@H](O)[C@H]1O` [ADP], on αIIbβ3 integrin (50 μM ADP), the “LIBS binding to platelets (3 LIBS mAbs)” value is given as “Neither of these agonists was able to increase LIBS binding”.
In the case of `[Mn+2]` [Mn^++], on αvβ3 integrin (0.5 mM Mn++ added to 1 mM GRGDSP), the “LIBS antibody binding shift” value was “further augmented”. Moreover, on αIIbβ3 integrin (0.5 mM Mn++ added to 100 μM RGD, human platelets), the LIBS1 binding shift result is reported as “further magnified”. Also, in the test with C32 melanoma cells (2 mM MnSO4), the “C32 cell adhesion to Vn” value was “increased adhesion”, the C32 cell spreading entry is on record as “enhanced spreading” and the “increase in number of spread cells” value is “ca. 3 fold”.
Take GRGDSP: the “LIBS1, LIBS6 or D3 antibody binding (fluorescence)” value with αvβ3 integrin was “increase in fluorescence”. In addition, in the test with αvβ3 integrin (listed as RGD peptide), the “LIBS1, LIBS6 or D3 antibody binding (fluorescence)” value is on record as “increase in D3 binding”. In the test with αIIbβ3 integrin (100 μM RGD, human platelets), the “LIBS1 binding to αIIbβ3” value is given as “sufficient to increase LIBS1 binding” and the “LIBS6 binding to αIIbβ3” value is given as “not increased”. For the same molecule, in the test on C32 melanoma cells (0.5 mM GRGDSP), the C32 cell adhesion result is recorded as “effectively reduced cell adhesion; also recorded: nearly eliminated” and the C32 cell spreading result is “nearly eliminated”.
Regarding “KMDASAAVS (listed as Homo sapiens) [control peptide]”, in the test with αvβ3 integrin, the LIBS1 antibody binding result is on record as “did not enhance LIBS1 binding”.
In the case of “KRFYVVMWKK (listed as Homo sapiens) [4N1K]”, the “increase in number of spread cells” value in the test on C32 melanoma cells (50 μM 4N1K) was approximately 10 fold. Moreover, in the test with C32 melanoma cells (50 μM 4N1K, 30 min at 37°, no additions set at 100%), the “C32 cell adhesion increased” value is reported as 400%.
Regarding “TTRTDTC (listed as Homo sapiens) [P2483]”, the LIBS1 antibody binding entry is listed as “dramatically increased” with αvβ3 integrin and “greater than that promoted by RGD plus Mn^++” in the test with αvβ3 integrin (listed as 2483). Also, the “LIBS1 binding to αIIbβ3” value is “unable to increase LIBS1 binding” with αIIbβ3 integrin (setting [2]) and “failed to increase LIBS1 binding” in the test with αIIbβ3 integrin (100 μM clasp peptide in the presence of 100 μM RGD, metabolically inactive human platelets, listed as β3 clasp peptide). In addition, the “D3 LIBS antibody binding to platelets” value in the test with αIIbβ3 integrin (human platelets) is on record as “marginally stimulated D3 binding”. Also, the C32 cell adhesion result in the test with C32 melanoma cells (setting [3]) was “stimulated cell adhesion to an extent comparable to 4N1K”.
“YMESRADRK (listed as Homo sapiens) [P2484]”: the LIBS1 antibody binding result with αvβ3 integrin is recorded as “dramatically increased”; with αvβ3 integrin (listed as 2484), “greater than that promoted by RGD plus Mn^++”. For the same molecule, the “LIBS1 binding to αIIbβ3” value in the test with αIIbβ3 integrin (setting [2]) was “increased LIBS1 binding”; in the test with αIIbβ3 integrin (100 μM clasp peptide in the presence of 100 μM RGD, metabolically inactive human platelets, listed as αIIb clasp peptide), “increased binding well above that with RGD alone”. Also, the “D3 LIBS antibody binding to platelets” value with αIIbβ3 integrin (human platelets) was “large rightward shifts”. Further, the C32 cell adhesion result with C32 melanoma cells (setting [3]) is reported as “stimulated cell adhesion to an extent comparable to 4N1K”.
Take “thrombin receptor activating peptide [TRAP]”: the “LIBS binding to platelets (3 LIBS mAbs)” value at αIIbβ3 integrin (10 μM TRAP) was “Neither of these agonists was able to increase LIBS binding”.

B1: P2484 (αIIb integrin clasp peptide, residues 313-321, YMESRADRK) (peptide)
peptide: YMESRADRK
Turning to B1, the “C32 cell spreading on vitronectin” value in test [1] stood at 78 fold.

B2: P2483 (β3 integrin clasp peptide, residues 561-567, TTRTDTC) (peptide)
peptide: TTRTDTC
Regarding B2, the “C32 cell spreading on vitronectin” value in test [1] was determined as 9 fold.
